The source of these data is PMC4005694, “Archaeal aminoacyl-tRNA synthetases interact with the ribosome to recycle tRNAs” (Nucleic Acids Research, 2014).

B7: Methanothermobacter thermautotrophicus arginyl-tRNA synthetase (enzyme, M. thermautotrophicus, UniProt O27496 1-560, looked up)
chain: MFRYIEKEARDSITAALEKLGIKVPPEIKLEEPPNPQLGDLASTVSFELAGKLRRAPIEITADIMSVIETPEIFETIESKGPYINFFVDYGRFSSRLLESIQDDYGSHPPRDERVILEHTSANPNGPLHIGHIRNAIIGDSLARILRMAGYDVETQYYVNDMGRQIAMIVWGLLNLDGDLEDYPGDKMDHRVGKLYFEVNQRLKENPGIRDEVDELIRKYEAGENEELFRKVVEYCLSGMEETMKRLHVHHDRFVWEGQFVRDGTVDRVIESLRKTGYTGENDVLYLDLEEFGLEKELVLTRSDGTSLYSTRDIAYHLQKSEEGDVIIDVLGSDHKLAAEQVGIAVELLGGKRPEVIFYEFITLPEGSMSTRRGVFISVDELMDEAHSRALHEVKKRRDLPDDVADDIAESIGNGAIRYYIARLSPEKHIVFRWDDALSFERGCASIQYAHARACKLLEKASFTGEEDIEDGWKPEGDERELVRLLARFPVVVEESALARRVHPVAQYAQDLANTFNSFYRSTPVIGSDFEGARLRLVDSVRKTLRNALNLLGIHAPETM
notes: arginyl-tRNA synthetase of M. thermautotrophicus; gene inserted into pPROex-Htb as a BamHI and XhoI cassette; His-tagged ArgRS is named only for the Ni-NTA SPR surface; also called ArgRS; source: E. coli BL21 Rosetta, purified (Ni-NTA agarose)

Common to all, as to details: both partners purified
Assay [1] deals with T1, Methanothermobacter thermautotrophicus methanogenic-type seryl-tRNA synthetase (M. thermautotrophicus, UniProt O27194 1-513).
T1 construct: methanogenic-type seryl-tRNA synthetase (mSerRS) of M. thermautotrophicus; Labelled with DY-495 in the MST experiment with L12; coupled by amines to a CM5 chip in SPR; also called mSerRS; SerRS
T1 sequence (looked up): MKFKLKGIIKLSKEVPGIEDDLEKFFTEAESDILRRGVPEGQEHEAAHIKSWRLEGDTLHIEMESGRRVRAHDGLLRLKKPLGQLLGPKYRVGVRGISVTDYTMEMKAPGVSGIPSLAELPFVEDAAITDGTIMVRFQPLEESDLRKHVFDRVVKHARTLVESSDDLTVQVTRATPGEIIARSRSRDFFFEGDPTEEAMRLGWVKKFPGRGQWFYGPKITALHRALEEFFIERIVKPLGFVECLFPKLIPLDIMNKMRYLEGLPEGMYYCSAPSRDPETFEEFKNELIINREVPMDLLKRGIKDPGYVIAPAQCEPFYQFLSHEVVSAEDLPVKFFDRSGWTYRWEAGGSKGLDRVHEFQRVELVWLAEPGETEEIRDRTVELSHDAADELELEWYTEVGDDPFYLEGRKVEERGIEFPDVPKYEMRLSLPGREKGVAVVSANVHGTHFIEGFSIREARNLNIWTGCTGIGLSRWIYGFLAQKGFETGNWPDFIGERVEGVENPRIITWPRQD
The assay can be described thus: MST; labelled mSerRS kept constant, unlabelled L12 titrated 0.528 nM-17.32 µM; Monolith NT.115.

Assay [2] deals with T1, Methanothermobacter thermautotrophicus …. Description: SPR; mSerRS amine-coupled to a CM5 chip (~800 RU), ribosomal proteins or controls as analytes; 25°C, Biacore T100, 10 µl/min; steady state affinity model.
The target in assay [3] is B7. The assay can be described thus: cross-linking; 70S ribosomes incubated with mSerRS or ArgRS; EDC; quenched; complexes pelleted; SDS-PAGE and mass spectrometry.
Assay [4] deals with B7. The assay can be described thus: SPR; ArgRS with ribosomal proteins; Ni-NTA surface used to immobilise His-tagged ArgRS, L6 or L12; which was held for which pair is not told; 25°C, Biacore T100. In general terms: Surface plasmon resonance follows binding to a sensor surface in real time, without labels.
The target in assay [5] is T2, elongation factor EF-G of M. thermautotrophicus, found in the cross-linking experiment with 70S ribosomes (M. thermautotrophicus (endogenous in M. …, UniProt O27131 1-730)).
T2 construct: EF-G of M. thermautotrophicus, Mr 81 kDa as printed; source: endogenous, in the 70S ribosome preparation from M. thermautotrophicus cells
T2 sequence (looked up): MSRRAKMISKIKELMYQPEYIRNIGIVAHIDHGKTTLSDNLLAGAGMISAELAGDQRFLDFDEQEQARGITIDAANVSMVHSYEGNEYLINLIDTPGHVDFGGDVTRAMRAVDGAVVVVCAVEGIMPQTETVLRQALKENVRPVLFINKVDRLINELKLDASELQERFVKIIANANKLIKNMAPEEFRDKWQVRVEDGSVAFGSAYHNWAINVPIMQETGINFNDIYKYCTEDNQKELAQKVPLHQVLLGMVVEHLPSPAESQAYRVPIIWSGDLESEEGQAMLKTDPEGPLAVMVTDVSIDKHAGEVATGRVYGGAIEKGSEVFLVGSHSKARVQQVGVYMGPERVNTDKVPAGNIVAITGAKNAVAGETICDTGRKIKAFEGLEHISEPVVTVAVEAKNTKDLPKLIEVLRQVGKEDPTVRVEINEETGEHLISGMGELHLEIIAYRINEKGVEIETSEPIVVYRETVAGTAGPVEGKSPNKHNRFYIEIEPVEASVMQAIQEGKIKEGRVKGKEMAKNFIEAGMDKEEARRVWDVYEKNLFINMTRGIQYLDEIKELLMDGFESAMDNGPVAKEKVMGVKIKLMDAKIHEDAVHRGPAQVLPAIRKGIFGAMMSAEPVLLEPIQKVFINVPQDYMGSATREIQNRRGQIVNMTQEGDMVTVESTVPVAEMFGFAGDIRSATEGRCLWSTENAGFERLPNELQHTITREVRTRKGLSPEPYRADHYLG
Description: cross-linking; 70S ribosomes incubated with mSerRS or ArgRS; EDC; quenched; complexes pelleted; SDS-PAGE and mass spectrometry.

B1: recombinant ribosomal protein L12 of M. thermautotrophicus (natural protein, UniProt P05394 1-101, looked up)
chain: MEYIYAAMLLHTTGKEINEENVKSVLEAAGAEVDDARVKALIAALEDVDIEEAMETTAVAAAPAAAAAPAAAEEAEEEAEEEEEEEEAEEEAAAGLGALFG
notes: ribosomal protein L12 (P1 homologue) of M. thermautotrophicus; whole-length gene amplified from genomic DNA, cloned into pPROex-Htb via NcoI and SalI; also called P1; source: E. coli BL21 Rosetta, purified (Ni-NTA agarose)
Consider B1, for which the values for the Kd in assay [1] and in assay [2] were 460 nM and 170 nM, respectively.

B2: ribosomal protein L3p of M. thermautotrophicus, as it stands in the ribosome (natural protein, UniProt O26110 1-337, looked up)
chain: MARHHQPRKGSVAFSPRKRAARETPRVKSWPQVDEPGLLALAGYKAGMTHVMMVDNQKNSPTEGMEVSTPVTILEVPPLTVMAVRTYEKTSRGLKTLGEVLATETKDDLRRKLTPPADDYDQEAAIEKIRSNMEYVADVRVIVHTNPRLASVPKKKPEVFECGLGGKTPEEKFEYALEILGKDVRASEIFSEGAFVDAIAVTKGKGFQGPVKRWGIRIQYGKAARSSKGRHIGSLGPWTPSRTMWTVPQAGQMGYHRRTEYNKQILKIGDASEADLVNPDGGFVRYGLVRNDYVMIKGSVPGPTKRLVVLRKAIRAAGKQEEAPQINYISTASKQGV
notes: ribosomal protein L3 of M. thermautotrophicus, Mr 37 kDa as printed; Cross-linked while part of the ribosome; source: endogenous, in 70S ribosomes purified from M. thermautotrophicus cells
For B2, in assay [3], the binding result was “binds”.

B3: recombinant ribosomal protein L3 of M. thermautotrophicus (natural protein, UniProt O26110 1-337, looked up)
chain: MARHHQPRKGSVAFSPRKRAARETPRVKSWPQVDEPGLLALAGYKAGMTHVMMVDNQKNSPTEGMEVSTPVTILEVPPLTVMAVRTYEKTSRGLKTLGEVLATETKDDLRRKLTPPADDYDQEAAIEKIRSNMEYVADVRVIVHTNPRLASVPKKKPEVFECGLGGKTPEEKFEYALEILGKDVRASEIFSEGAFVDAIAVTKGKGFQGPVKRWGIRIQYGKAARSSKGRHIGSLGPWTPSRTMWTVPQAGQMGYHRRTEYNKQILKIGDASEADLVNPDGGFVRYGLVRNDYVMIKGSVPGPTKRLVVLRKAIRAAGKQEEAPQINYISTASKQGV
notes: ribosomal protein L3 of M. thermautotrophicus; gene inserted into pGEX-6P-2 via BamHI and EcoRI; The methods say both that the GST tag was removed and that GST-tagged proteins are appropriate for SPR; source: E. coli BL21 Rosetta, purified (GST-Sepharose)
With B3, the binding result in assay [4] is on record as “binds”. Moreover, in assay [2], the Kd (as a rule, a measure of binding affinity in units of concentration) was 54 nM.

B4: recombinant ribosomal protein L6 of M. thermautotrophicus (natural protein)
chain: not shown
notes: ribosomal protein L6 of M. thermautotrophicus; whole-length gene amplified from genomic DNA, cloned into pPROex-Htb via BamHI and SalI; source: E. coli BL21 Rosetta, purified (Ni-NTA agarose)
Consider B4, for which the binding result in assay [4] was “binds”. Also, the affinity in assay [2], expressed as Kd, was 240 nM.

B5: ribosomal protein L10 (P0 homologue) of M. thermautotrophicus, as it stands in the ribosome (natural protein, UniProt O27717 1-336, looked up)
chain: MAHVAEWKKKEVQELHDLIKGYEVVGIANLADIPARQLQKMRQTLRDSALIRMSKKTLISLALEKAGRELENVDSLSDYMEGQPALIFTDMNPFKLFKILEDSKTPAPAKPGAIAPDDIVVPKGDTGFAPGPILGELQQIGIPAKIEKGKIVVSNDHVVVKAGEEIPPKVAGILTRLDIQPLEVGIDLRAAYENQTVYTADVLTIDEEKTLSDIQKAFSQAFNLSVNAVIYTRETMPAIIQKAASKSFNLAYNASILTSETTDLLLAKAYAQMLALAAAAAEINDEAVDDELKEKLSSRAAAPAPEEKEEEVEEEAEEEEEEEEEDAAAGLGALFG
notes: ribosomal protein L10 (P0 homologue) of M. thermautotrophicus, Mr 37 kDa as printed; Cross-linked while part of the ribosome; source: endogenous, in 70S ribosomes purified from M. thermautotrophicus cells
Take B5: the binding result in assay [3] was “binds”.

B6: recombinant ribosomal protein L10 of M. thermautotrophicus (natural protein, UniProt O27717 1-336, looked up)
chain: MAHVAEWKKKEVQELHDLIKGYEVVGIANLADIPARQLQKMRQTLRDSALIRMSKKTLISLALEKAGRELENVDSLSDYMEGQPALIFTDMNPFKLFKILEDSKTPAPAKPGAIAPDDIVVPKGDTGFAPGPILGELQQIGIPAKIEKGKIVVSNDHVVVKAGEEIPPKVAGILTRLDIQPLEVGIDLRAAYENQTVYTADVLTIDEEKTLSDIQKAFSQAFNLSVNAVIYTRETMPAIIQKAASKSFNLAYNASILTSETTDLLLAKAYAQMLALAAAAAEINDEAVDDELKEKLSSRAAAPAPEEKEEEVEEEAEEEEEEEEEDAAAGLGALFG
notes: ribosomal protein L10 (P0 homologue) of M. thermautotrophicus; gene inserted into pGEX-6P-2 via BamHI and SalI; The methods say both that the GST tag was removed and that GST-tagged proteins are appropriate for SPR; also called P0; source: E. coli BL21 Rosetta, purified (GST-Sepharose)
Turning to B6, the binding result in assay [4] was “binds”. The Kd in assay [2] was 39 nM.
For the molecule B7, the binding result in assay [5] is on record as “binds”.
